# Measurements from US9624471B2, “Methods for maturing cardiomyocytes and uses thereof” (UNIVERSITY OF WASHINGTON THROUGH ITS CENTER FOR …, priority 2013, dated 2017).
# B1: let-7i: human let-7 family miRNA, SEQ ID NO: 10, overexpressed from pLKO lentiviral pri-miR-let-7i construct (nucleic acid, listed as Homo sapiens)
# chain: CUGGCUGAGGUAGUAGUUUGUGCUGUUGGUCGGGUUGUGACAUUGCCCGCUGUGGAGAUAACUGCGCAAGCUACUGCCUUGCUA
# B2: let-7g: human let-7 family miRNA, SEQ ID NO: 9, overexpressed from pLKO lentiviral pri-miR-let-7g construct (nucleic acid, listed as Homo sapiens)
# chain: AGGCUGAGGUAGUAGUUUGUACAGUUUGAGGGUCUAUGAUACCACCCGGUACAGGAGAUAACUGUACAGGCCACUGCCUUGCCA
# Columns and labels:
# [1] = test system: cardiomyocytes (let-7 OE CMs vs. EV control); experiment: SEAHORSE XF96 metabolic flux assay (MITOSTRESS, palmitate, glucose stress); type: cell-based, human; conditions: compared to EV control; for OCR changes after FCCP treatment (maximal respiration capacity): after oligomycin
# Text: To understand the molecular signaling components of maturation program that are modulated in let-7g OE CMs, the inventors probed the differential expression data further using density plots for each of the 12 pathways previously identified (FIG. 4F). […] The inverse relationship between FA metabolism and PI3/AKT/insulin signaling in let-7g OE CMs was similar to that observed in the 1 yr old CMs and consistent with the metabolic switch seen in maturing CMs in in vivo studies. The inventors validated by qPCR in the let-7 OE CMs the down-regulation of candidate let-7 targets in the insulin pathway and up-regulation of candidates of FA metabolism (FIG. 5B). To test the functional relevance for these gene expression changes, the inventors carried out metabolic analysis of let-7 OE CMs vs. EV control using the SEA HORSE™ metabolic flux assay. First, mitochondrial maximal respiration capacity was analyzed by measuring the oxygen consumption rate (OCR), a metabolic parameter representing the mitochondrial respiration levels. To record the maximum activity of the electron transport chain uncoupled from ATP synthesis, mitochondrial ATP synthase was inhibited with oligomycin, then maximum mitochondrial respiration was measured after addition of the proton gradient discharger, carbonyl cyanide 4-(trifluoromethoxy)phenylhydrazone (FCCP). […] Increased mitochondrial respiration can be due to increased mitochondrial copy number or increased mitochondrial activity, for example due to higher efficiency of glucose or fatty acid usage as energy substrates. […] To investigate whether the let-7 OE CMs also utilize glucose more efficiently, the extracellular acidification rate (ECAR) was determined. […] These experiments clearly indicate that let-7 OE specifically increases the efficiency of palmitate usage, which is an important sign of maturation.
# The SEAHORSE™ XF96 extracellular flux analyzer was used to assess mitochondrial function. The plates were pre-treated with 0.1% Gelatin. At around 20 days after differentiation, the cardiomyocytes (both empty vector control and let-7 OE) were seeded onto the plates with a density of 30,000 cells per XF96 well (2,500/mm^2) to ensure about 90% surface coverage at the time of experiment. The SEAHORSE™ assays were carried out 3 days after the seeding onto the XF96 well plate. […] The OCR values were further normalized to the number of cells present in each well, quantified by the Hoechst staining (Hoechst 33342; SIGMA-ALDRICH™) as measured using fluorescence at 355 nm excitation and 460 nm emission. […] Cellular capacity to utilize Palmitate as an energy source was calculated as the OCR reduction after ETO addition. […]
# [2] = test system: hESCs-CMs; experiment: Contractile force and beat frequency measurement on arrays of microposts; type: cell-based, human; conditions: let-7 OE CMs; for beat frequency: EV control 1.57±0.1 hz; for average twitch force: EV control 7.77±0.7 nN/cell, P<0.001
# Method: Arrays of silicone microposts were fabricated out of polydimethylsiloxane (PDMS) via a previously-described double-casting process using soft lithography from a SU8 master^19. Each micropost within the arrays used for these studies was 6.45 μm in height, 2.3 μm in diameter, and the center to center spacing between adjacent posts was 6 μm. Prior to cell seeding, the tips of these microposts were stamped with 50 μg/ml of mouse laminin (LIFE TECHNOLOGIES™), and the remaining surfaces of the array were fluorescently stained with BSA 594 and blocked with 0.2% Pluronic F-127 (in PBS)^20. CMs that were 1 week post pLKO-let-7 OE or EV lentiviral transfection, were seeded onto these arrays at a density of around 800,000 cells per substrate.
# One week following cell seeding, muscle twitches from individual hESCs-CMs were recorded with high-speed video microscopy within a live cell chamber at 37° C. These images were acquired using a NIKON™ Ti-E upright microscope with a 60× water-immersion objective and a Hammamatsu ORCA™ camera. A custom MATLAB™ code was then used to compare each time frame of this video, to a reference fluorescent image, taken at the base plane of the posts. The twitch force at each post was subsequently calculated by multiplying the deflection of the post by the post's bending stiffness (38 nN/μm). The total twitch force produced by the cell was then determined by adding together the twitch force measured at each post beneath the cell. The average spontaneous beating frequency of the cells was determined by locating the time at which each beat reaches a maximum in the total twitch force (using the same MATLAB™ code), calculating the frequency between each sequential beat: 1/(time at which second beat occurs—time at which first beat occurs), and then averaging these frequencies across all of the measured twitch events.
# [3] = test system: IMR90 iPSC-CMs; experiment: let-7 over-expression in IMR90 iPSC derived cardiomyocytes, qPCR; type: cell-based; conditions: for let-7 over expression relative to empty vector (EV) control: pLKO-lentiviral OE for up to 2 weeks; for cardiomyocyte maturation markers expression / let-7 targets (lin28 and HMGA2) expression: qPCR
# Text: FIGS. 19A-19B show let-7 over-expression (OE) in IMR90 iPSC derived cardiomyocytes (IMR90 iPSC-CMs). A pLKO-lentiviral based system was used to overexpress let-7g and let-7i in IMR90-iPSC-CMs for up to 2 weeks. […] Experiments were validated with 3 biological and 3 technical replicates. FIG. 19B qPCR validated the down-regulation of let-7 targets (lin28 and HMGA2) and upregulation of cardiomyocyte maturation markers in let-7i OE and let-7g OE CMs.
# Total RNAs were extracted with miRNeasy™ mini kit (QIAGEN™) or using TRIZOL™ (INVITROGEN™). RNA was DNAse treated with DNA-free kit (AMBION™). miR-let-7g and mir-let-7i taqman assays (APPLIED BIOSYSTEMS) were used for miRNAqPCRs following the manufacturer's protocol using RNU66 snoRNA as a loading control. For mRNA qPCR, reverse transcription reaction was carried out using Omniscript™ RT kit (QIAGEN™). Primers for CTNT, MYH7, RYR2, SERCA2 and GJA1 were based on Tulloch et a1^2. Primers for HCN4, KCNJ2, SCN5A, HMGA1, HMGA2, IRS2, INSR, LIN28, SLC27A6 and FABP2, CD36, PPARA, TRIM71, EGR1, CDKN1A were purchased from Real Time Primers. qPCR was performed using SYBR green chemistry and ABI 7300 Real time PCR system. Samples were normalized using GAPDH as a house keeping gene.
molecule,measurement,setting,value
B1,OCR changes after FCCP treatment (maximal respiration capacity),[1],significantly greater
same,OCR increase in response to palmitate (fatty acid stress test),[1],greater
same,beat frequency,[2],1.05±0.1 hz
same,average twitch force,[2],11.32±0.86 nN/cell
same,let-7 over expression relative to empty vector (EV) control,[3],up to 8 fold
same,cardiomyocyte maturation markers expression,[3],upregulation
same,let-7 targets (lin28 and HMGA2) expression,[3],down-regulation
B2,OCR changes after FCCP treatment (maximal respiration capacity),[1],significantly greater
same,OCR increase in response to palmitate (fatty acid stress test),[1],greater
same,beat frequency,[2],0.92±0.094 hz
same,average twitch force,[2],9.28±0.7 nN/cell
same,let-7 over expression relative to empty vector (EV) control,[3],≤ 10 fold
same,cardiomyocyte maturation markers expression,[3],upregulation
same,let-7 targets (lin28 and HMGA2) expression,[3],down-regulation
